B1: Keratin, type II cytoskeletal 79 (Homo sapiens), Q5XKE5 (parent)
chain: MRSSVSRQTYSTKGGFSSNSASGGSGSQARTSFSSVTVSRSSGSGGGAHCGPGTGGFGSRSLYNLGGHKSISVSVAGGALLGRALGGFGFGSRAFMGQGAGRQTFGPACPPGGIQEVTVNQSLLTPLHVEIDPEIQRVRTQEREQIKTLNNKFASFIDKVRFLEQQNKVLETKWALLQEQGQNLGVTRNNLEPLFEAYLGSMRSTLDRLQSERGRLDSELRNVQDLVEDFKNKYEDEINKHTAAENEFVVLKKDVDAAYMGRMDLHGKVGTLTQEIDFLQQLYEMELSQVQTHVSNTNVVLSMDNNRNLDLDSIIAEVKAQYELIAQRSRAEAEAWYQTKYEELQVTAGKHGDNLRDTKNEIAELTRTIQRLQGEADAAKKQCQQLQTAIAEAEQRGELALKDAQKKLGDLDVALHQAKEDLTRLLRDYQELMNVKLALDVEIATYRKLLESEESRMSGECPSAVSISVTGNSTTVCGGGAASFGGGISLGGSGGATKGGFSTNVGYSTVKGGPVSAGTSILRKTTTVKTSSQRY
partner: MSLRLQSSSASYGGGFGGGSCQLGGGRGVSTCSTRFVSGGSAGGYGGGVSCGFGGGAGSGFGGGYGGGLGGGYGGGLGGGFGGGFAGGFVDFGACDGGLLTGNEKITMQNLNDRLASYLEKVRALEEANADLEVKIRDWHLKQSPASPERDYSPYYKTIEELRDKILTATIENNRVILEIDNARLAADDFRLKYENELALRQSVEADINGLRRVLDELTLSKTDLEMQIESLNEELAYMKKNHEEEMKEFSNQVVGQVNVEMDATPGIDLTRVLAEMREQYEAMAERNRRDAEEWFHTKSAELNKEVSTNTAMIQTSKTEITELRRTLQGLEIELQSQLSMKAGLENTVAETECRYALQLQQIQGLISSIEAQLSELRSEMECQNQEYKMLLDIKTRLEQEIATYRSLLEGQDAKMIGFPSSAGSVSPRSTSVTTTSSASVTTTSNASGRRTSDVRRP
B2: Protein LDOC1 (Homo sapiens), O95751 (parent)
chain: MVDELVLLLHALLMRHRALSIENSQLMEQLRLLVCERASLLRQVRPPSCPVPFPETFNGESSRLPEFIVQTASYMLVNENRFCNDAMKVAFLISLLTGEAEEWVVPYIEMDSPILGDYRAFLDEMKQCFGWDDDEDDDDEEEEDDY
B3: WW domain-containing adapter protein with coiled-coil (Homo sapiens), Q9BTA9-1 (parent)
chain: MVMYARKQQRLSDGCHDRRGDSQPYQALKYSSKSHPSSGDHRHEKMRDAGDPSPPNKMLRRSDSPENKYSDSTGHSKAKNVHTHRVRERDGGTSYSPQENSHNHSALHSSNSHSSNPSNNPSKTSDAPYDSADDWSEHISSSGKKYYYNCRTEVSQWEKPKEWLEREQRQKEANKMAVNSFPKDRDYRREVMQATATSGFASGMEDKHSSDASSLLPQNILSQTSRHNDRDYRLPRAETHSSSTPVQHPIKPVVHPTATPSTVPSSPFTLQSDHQPKKSFDANGASTLSKLPTPTSSVPAQKTERKESTSGDKPVSHSCTTPSTSSASGLNPTSAPPTSASAVPVSPVPQSPIPPLLQDPNLLRQLLPALQATLQLNNSNVDISKINEVLTAAVTQASLQSIIHKFLTAGPSAFNITSLISQAAQLSTQAQPSNQSPMSLTSDASSPRSYVSPRISTPQTNTVPIKPLISTPPVSSQPKVSTPVVKQGPVSQSATQQPVTADKQQGHEPVSPRSLQRSSSQRSPSPGPNHTSNSSNASNATVVPQNSSARSTCSLTPALAAHFSENLIKHVQGWPADHAEKQASRLREEAHNMGTIHMSEICTELKNLRSLVRVCEIQATLREQRILFLRQQIKELEKLKNQNSFMV
B4: NIF3-like protein 1 (Homo sapiens), Q9GZT8 (parent)
chain: MLSSCVRPVPTTVRFVDSLICNSSRSFMDLKALLSSLNDFASLSFAESWDNVGLLVEPSPPHTVNTLFLTNDLTEEVMEEVLQKKADLILSYHPPIFRPMKRITWNTWKERLVIRALENRVGIYSPHTAYDAAPQGVNNWLAKGLGACTSRPIHPSKAPNYPTEGNHRVEFNVNYTQDLDKVMSAVKGIDGVSVTSFSARTGNEEQTRINLNCTQKALMQVVDFLSRNKQLYQKTEILSLEKPLLLHTGMGRLCTLDESVSLATMIDRIKRHLKLSHIRLALGVGRTLESQVKVVALCAGSGSSVLQGVEADLYLTGEMSHHDTLDAASQGINVILCEHSNTERGFLSDLRDMLDSHLENKINIILSETDRDPLQVV
partner: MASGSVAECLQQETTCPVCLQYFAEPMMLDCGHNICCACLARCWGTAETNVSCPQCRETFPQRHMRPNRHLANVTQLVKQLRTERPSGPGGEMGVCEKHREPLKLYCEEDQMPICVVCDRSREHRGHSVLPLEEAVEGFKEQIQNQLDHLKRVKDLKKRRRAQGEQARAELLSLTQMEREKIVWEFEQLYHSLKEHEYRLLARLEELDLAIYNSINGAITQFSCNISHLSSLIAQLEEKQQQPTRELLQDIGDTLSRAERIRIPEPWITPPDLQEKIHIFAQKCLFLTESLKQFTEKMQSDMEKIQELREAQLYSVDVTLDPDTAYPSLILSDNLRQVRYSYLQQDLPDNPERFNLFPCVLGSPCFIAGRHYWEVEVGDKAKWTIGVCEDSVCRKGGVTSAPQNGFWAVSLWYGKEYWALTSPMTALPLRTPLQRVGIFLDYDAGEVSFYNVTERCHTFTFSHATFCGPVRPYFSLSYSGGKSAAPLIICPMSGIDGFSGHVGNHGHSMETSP

Variants of: B1
Conditions: with KRT13, P13646

| Variant | effect of a mutation on the interaction |
| --- | --- |
| R30C | with no effect |
| D217Y | with no effect |
| G86E | with no effect |

Continued, values first:

| effect of a mutation on the interaction | Variant |
| --- | --- |
| with no effect | H266R |
| with no effect | R213W |
| with no effect | R161Q |

Variants of: B2
Conditions: with ch033_human C8orf33, Q9H7E9

| effect of a mutation on the interaction | Variant |
| --- | --- |
| with no effect | L12H |

Variants of: B2
Conditions: with KRT15, P19012
Target sequence in this assay (P19012 whole entry): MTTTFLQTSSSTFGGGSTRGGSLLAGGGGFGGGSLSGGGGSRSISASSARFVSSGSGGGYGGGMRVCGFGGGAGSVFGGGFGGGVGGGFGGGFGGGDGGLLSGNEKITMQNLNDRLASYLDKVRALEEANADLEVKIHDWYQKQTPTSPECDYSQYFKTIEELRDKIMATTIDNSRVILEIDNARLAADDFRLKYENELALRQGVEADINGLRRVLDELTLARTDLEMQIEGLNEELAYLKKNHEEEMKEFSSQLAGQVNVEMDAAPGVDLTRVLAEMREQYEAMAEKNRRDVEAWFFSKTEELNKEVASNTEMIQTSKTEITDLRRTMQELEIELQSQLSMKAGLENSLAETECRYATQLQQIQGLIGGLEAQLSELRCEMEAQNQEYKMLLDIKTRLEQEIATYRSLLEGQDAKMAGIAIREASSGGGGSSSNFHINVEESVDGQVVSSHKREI

| effect of a mutation on the interaction | Variant |
| --- | --- |
| with no effect | L12H |

Variants of: B2
Conditions: with atf4_human ATF4, P18848

| effect of a mutation on the interaction | Variant |
| --- | --- |
| with no effect | L12H |

Variants of: B2
Conditions: with bard1_human BARD1, Q99728

| effect of a mutation on the interaction | Variant |
| --- | --- |
| disrupting interaction strength | L12H |

Variants of: B2
Conditions: with prp31_human PRPF31, Q8WWY3
Chain of prp31_human PRPF31, Q8WWY3 (Q8WWY3 whole entry): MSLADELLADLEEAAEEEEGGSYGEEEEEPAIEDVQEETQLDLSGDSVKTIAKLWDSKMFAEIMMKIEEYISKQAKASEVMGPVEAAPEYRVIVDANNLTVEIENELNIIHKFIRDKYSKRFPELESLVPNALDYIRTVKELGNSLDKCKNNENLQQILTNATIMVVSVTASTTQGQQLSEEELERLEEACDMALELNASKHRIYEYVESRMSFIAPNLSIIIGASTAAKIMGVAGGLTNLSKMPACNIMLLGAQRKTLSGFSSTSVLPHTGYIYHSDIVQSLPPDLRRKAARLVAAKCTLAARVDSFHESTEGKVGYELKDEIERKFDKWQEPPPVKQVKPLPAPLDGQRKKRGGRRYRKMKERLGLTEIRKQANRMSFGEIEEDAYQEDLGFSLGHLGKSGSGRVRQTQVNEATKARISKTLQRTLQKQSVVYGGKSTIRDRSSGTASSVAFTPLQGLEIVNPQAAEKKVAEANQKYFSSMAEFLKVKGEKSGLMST

| effect of a mutation on the interaction | Variant |
| --- | --- |
| disrupting interaction strength | L12H |

Variants of: B2
Conditions: with prc1_human PRC1, O43663
Chain of prc1_human PRC1, O43663 (O43663 whole entry): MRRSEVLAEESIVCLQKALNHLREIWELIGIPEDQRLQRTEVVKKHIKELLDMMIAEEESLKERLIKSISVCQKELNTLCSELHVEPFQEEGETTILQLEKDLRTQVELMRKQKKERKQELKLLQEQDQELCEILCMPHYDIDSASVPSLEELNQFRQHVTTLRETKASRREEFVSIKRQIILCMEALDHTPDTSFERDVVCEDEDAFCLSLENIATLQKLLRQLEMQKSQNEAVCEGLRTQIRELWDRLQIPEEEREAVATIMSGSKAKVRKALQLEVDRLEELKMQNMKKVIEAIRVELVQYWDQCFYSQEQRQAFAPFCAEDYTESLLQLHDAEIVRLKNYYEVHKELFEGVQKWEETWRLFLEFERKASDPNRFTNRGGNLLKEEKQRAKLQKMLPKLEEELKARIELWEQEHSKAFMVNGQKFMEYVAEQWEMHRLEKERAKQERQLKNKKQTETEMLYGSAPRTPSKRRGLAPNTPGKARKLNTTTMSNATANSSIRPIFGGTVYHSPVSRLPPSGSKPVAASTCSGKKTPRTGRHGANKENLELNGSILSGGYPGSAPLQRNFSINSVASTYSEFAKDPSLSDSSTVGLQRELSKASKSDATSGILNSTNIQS

| effect of a mutation on the interaction | Variant |
| --- | --- |
| disrupting interaction strength | L12H |

Variants of: B2
Conditions: with zbt24_human ZBTB24, O43167

| effect of a mutation on the interaction | Variant |
| --- | --- |
| disrupting interaction strength | L12H |

Variants of: B2
Conditions: with vatg1_human ATP6V1G1, O75348
Chain of vatg1_human ATP6V1G1, O75348 (O75348 whole entry): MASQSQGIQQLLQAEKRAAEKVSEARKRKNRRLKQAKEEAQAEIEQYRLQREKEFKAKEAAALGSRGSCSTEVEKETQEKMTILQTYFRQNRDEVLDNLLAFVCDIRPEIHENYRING

| effect of a mutation on the interaction | Variant |
| --- | --- |
| disrupting interaction strength | L12H |

Variants of: B2
Conditions: with exoc7_human EXOC7, Q9UPT5
Chain of exoc7_human EXOC7, Q9UPT5 (Q9UPT5 whole entry): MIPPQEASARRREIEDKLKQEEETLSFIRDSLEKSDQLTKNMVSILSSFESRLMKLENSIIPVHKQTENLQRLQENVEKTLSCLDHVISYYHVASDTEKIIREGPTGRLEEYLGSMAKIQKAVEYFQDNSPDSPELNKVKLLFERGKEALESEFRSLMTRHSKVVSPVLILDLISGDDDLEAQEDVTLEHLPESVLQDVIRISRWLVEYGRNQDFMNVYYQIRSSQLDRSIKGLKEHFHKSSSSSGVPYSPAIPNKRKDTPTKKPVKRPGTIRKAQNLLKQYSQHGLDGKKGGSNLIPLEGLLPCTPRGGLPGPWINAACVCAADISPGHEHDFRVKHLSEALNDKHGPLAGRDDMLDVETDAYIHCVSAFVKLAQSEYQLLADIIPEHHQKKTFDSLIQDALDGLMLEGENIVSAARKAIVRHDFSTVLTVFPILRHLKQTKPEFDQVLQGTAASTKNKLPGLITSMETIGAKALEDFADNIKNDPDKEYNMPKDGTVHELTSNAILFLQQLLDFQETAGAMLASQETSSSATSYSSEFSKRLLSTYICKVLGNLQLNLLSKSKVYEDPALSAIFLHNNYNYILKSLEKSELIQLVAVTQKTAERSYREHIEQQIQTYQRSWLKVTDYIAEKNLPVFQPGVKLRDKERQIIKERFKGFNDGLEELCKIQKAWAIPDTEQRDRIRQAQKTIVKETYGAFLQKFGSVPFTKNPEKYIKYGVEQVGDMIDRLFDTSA

| effect of a mutation on the interaction | Variant |
| --- | --- |
| disrupting interaction strength | L12H |

Variants of: B2
Conditions: with tha10_human THAP10, Q9P2Z0
Chain of tha10_human THAP10, Q9P2Z0 (Q9P2Z0 whole entry): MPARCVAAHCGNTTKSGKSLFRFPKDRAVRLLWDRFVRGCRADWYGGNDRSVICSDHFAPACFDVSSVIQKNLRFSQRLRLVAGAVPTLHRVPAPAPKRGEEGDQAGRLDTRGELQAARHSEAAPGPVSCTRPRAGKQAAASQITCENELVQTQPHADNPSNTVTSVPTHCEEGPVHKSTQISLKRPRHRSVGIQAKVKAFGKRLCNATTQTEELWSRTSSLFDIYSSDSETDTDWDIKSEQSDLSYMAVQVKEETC

| effect of a mutation on the interaction | Variant |
| --- | --- |
| disrupting interaction strength | L12H |

Variants of: B2
Conditions: with zn250_human ZNF250, P15622
Chain of zn250_human ZNF250, P15622 (P15622 whole entry): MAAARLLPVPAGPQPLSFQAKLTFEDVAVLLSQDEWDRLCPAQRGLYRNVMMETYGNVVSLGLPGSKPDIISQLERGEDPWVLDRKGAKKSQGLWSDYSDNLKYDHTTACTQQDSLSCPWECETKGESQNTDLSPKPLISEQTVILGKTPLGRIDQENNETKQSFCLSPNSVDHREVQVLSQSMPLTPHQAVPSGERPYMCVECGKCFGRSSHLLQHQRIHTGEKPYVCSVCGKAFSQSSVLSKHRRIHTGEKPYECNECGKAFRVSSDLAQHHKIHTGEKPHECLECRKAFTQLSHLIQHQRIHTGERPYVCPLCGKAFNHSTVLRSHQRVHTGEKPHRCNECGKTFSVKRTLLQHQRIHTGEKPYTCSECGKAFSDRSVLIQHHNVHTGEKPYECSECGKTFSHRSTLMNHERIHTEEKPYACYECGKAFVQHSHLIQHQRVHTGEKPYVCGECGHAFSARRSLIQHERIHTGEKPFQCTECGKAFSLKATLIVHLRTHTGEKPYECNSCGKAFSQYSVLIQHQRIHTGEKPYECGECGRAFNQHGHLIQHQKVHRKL

| effect of a mutation on the interaction | Variant |
| --- | --- |
| disrupting interaction strength | L12H |

Variants of: B2
Conditions: with smrd1_human SMARCD1, Q96GM5
Chain of smrd1_human SMARCD1, Q96GM5 (Q96GM5 whole entry): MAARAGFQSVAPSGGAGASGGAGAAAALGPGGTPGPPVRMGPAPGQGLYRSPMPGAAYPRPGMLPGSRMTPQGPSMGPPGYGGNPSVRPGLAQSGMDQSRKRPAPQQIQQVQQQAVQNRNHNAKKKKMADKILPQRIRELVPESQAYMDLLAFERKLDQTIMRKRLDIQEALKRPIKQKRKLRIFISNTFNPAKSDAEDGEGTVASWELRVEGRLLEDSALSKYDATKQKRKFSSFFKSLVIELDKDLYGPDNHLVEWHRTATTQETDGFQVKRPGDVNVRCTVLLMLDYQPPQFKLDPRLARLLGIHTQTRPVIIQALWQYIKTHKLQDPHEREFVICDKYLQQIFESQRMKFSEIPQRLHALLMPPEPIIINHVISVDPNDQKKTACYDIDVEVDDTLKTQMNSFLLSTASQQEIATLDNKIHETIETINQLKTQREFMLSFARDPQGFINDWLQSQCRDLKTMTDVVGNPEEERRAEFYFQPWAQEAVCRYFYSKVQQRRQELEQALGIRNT

| effect of a mutation on the interaction | Variant |
| --- | --- |
| disrupting interaction strength | L12H |

Variants of: B2
Conditions: with mmta2_human MMTAG2, Q9BU76
Chain of mmta2_human MMTAG2, Q9BU76 (Q9BU76 whole entry): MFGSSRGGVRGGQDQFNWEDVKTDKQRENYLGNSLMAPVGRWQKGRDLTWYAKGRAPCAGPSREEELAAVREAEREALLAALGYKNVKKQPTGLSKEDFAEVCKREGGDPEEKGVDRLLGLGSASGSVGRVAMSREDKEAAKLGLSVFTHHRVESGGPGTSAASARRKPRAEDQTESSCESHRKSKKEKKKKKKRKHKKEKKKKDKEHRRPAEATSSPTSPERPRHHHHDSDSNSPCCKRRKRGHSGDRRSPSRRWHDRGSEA

| effect of a mutation on the interaction | Variant |
| --- | --- |
| disrupting interaction strength | L12H |

Variants of: B2
Conditions: with tnnt1_human TNNT1, P13805
Chain of tnnt1_human TNNT1, P13805 (P13805 whole entry): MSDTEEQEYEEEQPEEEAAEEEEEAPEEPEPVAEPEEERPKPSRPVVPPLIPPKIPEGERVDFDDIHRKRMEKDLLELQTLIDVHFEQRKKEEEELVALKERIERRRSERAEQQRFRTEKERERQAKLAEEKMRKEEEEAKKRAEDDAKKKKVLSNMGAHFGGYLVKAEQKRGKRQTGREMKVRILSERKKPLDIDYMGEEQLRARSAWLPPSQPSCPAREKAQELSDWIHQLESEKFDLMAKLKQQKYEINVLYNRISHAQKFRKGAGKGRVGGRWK

| effect of a mutation on the interaction | Variant |
| --- | --- |
| disrupting interaction strength | L12H |

Variants of: B2
Conditions: with aebp2_human AEBP2, Q6ZN18
Chain of aebp2_human AEBP2, Q6ZN18 (Q6ZN18 whole entry): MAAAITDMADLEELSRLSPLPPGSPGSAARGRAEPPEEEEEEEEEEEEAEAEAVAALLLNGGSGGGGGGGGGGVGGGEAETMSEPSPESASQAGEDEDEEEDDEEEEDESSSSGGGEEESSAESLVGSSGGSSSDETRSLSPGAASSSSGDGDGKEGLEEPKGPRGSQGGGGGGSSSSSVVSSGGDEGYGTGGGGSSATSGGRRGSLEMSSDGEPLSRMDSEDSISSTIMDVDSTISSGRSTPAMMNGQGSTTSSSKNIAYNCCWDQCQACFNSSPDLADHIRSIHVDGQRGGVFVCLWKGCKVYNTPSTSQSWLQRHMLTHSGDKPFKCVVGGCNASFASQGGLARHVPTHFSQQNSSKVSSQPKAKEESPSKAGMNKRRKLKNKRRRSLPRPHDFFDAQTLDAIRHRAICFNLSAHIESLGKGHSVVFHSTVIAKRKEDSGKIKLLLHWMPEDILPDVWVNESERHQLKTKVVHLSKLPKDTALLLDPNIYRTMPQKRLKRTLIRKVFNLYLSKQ

| effect of a mutation on the interaction | Variant |
| --- | --- |
| with no effect | L12H |

Variants of: B3
Conditions: with KRT15, P19012
Target sequence in this assay (P19012 whole entry): as the sequence (P19012 whole entry) above

| effect of a mutation on the interaction | Variant |
| --- | --- |
| with no effect | S475L |

Variants of: B3
Conditions: with nf2l2_human NFE2L2, Q16236

| effect of a mutation on the interaction | Variant |
| --- | --- |
| with no effect | S475L |

Variants of: B3
Conditions: with mtus2_human MTUS2, Q5JR59

| effect of a mutation on the interaction | Variant |
| --- | --- |
| with no effect | S475L |

Variants of: B4
Conditions: with tri27_human TRIM27, P14373

| effect of a mutation on the interaction | Variant |
| --- | --- |
| disrupting interaction strength | T324I |

Source: IntAct's records for PubMed 31515488
